For this assay, the target named is MDC1 (endogenous, HCT116) [human (endogenous in HCT116)]. The assay is described as follows: proximity ligation assay (PLA) in cells. The settings on record: ESCO2 KD HCT116 cells, bleomycin treated; 30 cells counted per group; mean ± SEM; parent: 14; read off a plot.

With “Flag-ESCO2 WT (in ESCO2 KD HCT116 cells) mutant S196A; T233A [human] / MDC1 (endogenous, HCT116) [human (endogenous in HCT116)] chain 1 S196A, chain 1 T233A”, the response (PLA dots per cell) worked out at 0.5.

Values taken from paper PMC10415120.
